Molecular target: T1, mouse OX2 (mouse, UniProt O54901 31-278)
T1 construct: whole, on cells; also called ligand OX2 (mouse); normally expressed mouse OX2
T1 sequence (looked up): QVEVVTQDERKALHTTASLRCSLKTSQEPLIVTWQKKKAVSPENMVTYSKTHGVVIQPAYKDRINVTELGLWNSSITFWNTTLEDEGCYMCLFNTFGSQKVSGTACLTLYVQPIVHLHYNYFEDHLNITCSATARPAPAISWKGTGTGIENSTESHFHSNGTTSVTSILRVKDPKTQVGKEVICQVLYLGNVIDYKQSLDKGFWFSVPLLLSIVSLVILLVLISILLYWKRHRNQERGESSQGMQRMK
Assay: immunoperoxidase staining of mouse spleen sections, detected with anti-human Fc
Procedure: To determine function of OX2-OX2R interaction in vitro and in vivo, an adenovirus construct was prepared that produced in soluble form, the extracellular region of OX2RH1 fused to human IgG. A control construct was prepared that produced in soluble form, only the human IgG backbone. In the first instance, supernatants containing these fusion proteins were produced by cellular infection in vitro to test whether the OX2R fusion protein had biological function on the basis of binding to normally expressed mouse OX2. In the first series of studies, tissue sections of mouse spleen from normal as well as OX2-gene knockout (KO) mice, were prepared and OX2R, or control fusion proteins were added, and these reagents detected by addition of an antibody binding to the human Fc portion of the fusion protein, and subsequent immunoperoxidase staining procedures to reveal binding. Weak binding only of the OX2R fusion protein, and only in normal but not OX2 KO mice, was detected on follicular dendritic cells and endothelial cells. Both cell types are know to express very high levels of the ligand OX2.

B1: human IgG-mouse OX2RH1 fusion protein (extracellular region of OX2RH1 fused to human IgG) (Fc fusion)
chain: TDKNQTTQNNSSSPLTQVNTTVSVQIGTKALLCCFSIPLTKAVLITWIIKLRGLPSCTIAYKVDTKTNETSCLGRNITWASTPDHSPELQISAVTLQHEGTYTCETVTPEGNFEKNYDLQVLVPPEVTYFPEKNRSAVCEAMAGKPAAQISWSPDGDCVTTSESHSNGTVTVRSTCHWEQNNVSDVSCIVSHLTGNQSLSIELSRGGNQSLRP
notes: Soluble protein from cells infected with an adenovirus construct; also called OX2R fusion protein; Ig-OX2R fusion protein; not shown: human IgG backbone with the human Fc portion
binding result: binds
